From article PMC6879534, “Structural basis for DNA unwinding at forked dsDNA by two coordinating Pif1 helicases” (Nature Communications, 2019)

How the values were obtained:
[1] = molecular target: BaPif1 E323A/K405A (Bacteroides sp (abstract); Bacterioides fragilis (methods))
BaPif1 [2] = conditions: ssDNA-stimulated ATPase
BaPif1 [3] = molecular target: BaPif1 (Bacteroides fragilis, UniProt Z9XEH3VG65); conditions: ssDNA-stimulated ATPase
[4] = molecular target: BaPif1 F379A (Bacteroides fragilis (title/abstract: Bacteroides sp)) (UniProt A0A373G551); assay: fluorescence polarization; conditions: Fluorescence polarization: 2.5 nM T15-3'F, buffer and temperature not in the material; crystals: 80 mM NaCl, 40 mM sodium cacodylate pH 6.0, 35% MPD, 12 mM …
[5] = molecular target: BaPif1 H236A (Bacteroides fragilis (title/abstract: Bacteroides sp)) (UniProt A0A373G551); assay: fluorescence polarization; conditions: Fluorescence polarization: 2.5 nM T15-3'F, buffer and temperature not in the material; crystals: 80 mM NaCl, 40 mM sodium cacodylate pH 6.0, 35% MPD, 12 mM …
[6] = molecular target: BaPif1 wild type (Bacteroides fragilis (title/abstract: Bacteroides sp)) (UniProt A0A373G551); assay: fluorescence polarization; conditions: Fluorescence polarization: 2.5 nM T15-3'F, buffer and temperature not in the material; crystals: 80 mM NaCl, 40 mM sodium cacodylate pH 6.0, 35% MPD, 12 mM …

Sequence of BaPif1 (5FHD_1 entry or part of it E323K): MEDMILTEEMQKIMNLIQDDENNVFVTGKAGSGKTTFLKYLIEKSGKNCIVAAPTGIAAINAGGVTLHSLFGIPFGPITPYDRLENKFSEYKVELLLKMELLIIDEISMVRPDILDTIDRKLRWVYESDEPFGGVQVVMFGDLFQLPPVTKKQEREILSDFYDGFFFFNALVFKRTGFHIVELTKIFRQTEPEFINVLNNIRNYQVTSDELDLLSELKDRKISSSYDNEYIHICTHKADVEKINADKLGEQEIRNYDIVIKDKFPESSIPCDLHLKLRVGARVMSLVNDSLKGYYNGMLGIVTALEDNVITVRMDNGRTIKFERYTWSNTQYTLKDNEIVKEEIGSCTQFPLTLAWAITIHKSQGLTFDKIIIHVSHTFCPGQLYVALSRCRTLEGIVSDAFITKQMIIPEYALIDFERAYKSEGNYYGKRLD

BaPif1 E323A/K405A (enzyme)
rate of unwinding of the leading duplex (rapid chemical quench flow, single turnover) [1]: 33 s⁻¹
rate of unwinding of the parental duplex (rapid chemical quench flow, single turnover) [1]: 31 s⁻¹

Nc1ncnc2c1ncn2[C@@H]1O[C@H](COP(=O)(O)OP(=O)(O)OP(=O)(O)O)[C@@H](O)[C@H]1O [ATP]
ATP hydrolysis rate (BaPif1 [2]): The rates of ATP hydrolysis by both the E323A/K405A and E323K variants
ATP hydrolysis rate (BaPif1 [3]): only slightly increased relative to the wild type enzyme

TTTTTTTTTTTTTTT [T15-3'F]
Kd [4]: 0.25 µM
Kd [5]: 0.2 µM
Kd [6]: 0.074 µM
